Experimental data from the supplement of paper PMC9170038.

System: K4 kissing-loop RNA reporter
Test: apparent KD of K4 kissing-loop reporter; higher = weaker reporter binding
Settings: Eterna round: R107
Method: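 RNA-MaP round R107: designed RNA switches with theophylline, tryptophan, arginine or FMN aptamers are transcribed on-chip within common flanks. They are titrated with a labelled K4 kissing-loop RNA reporter in RNA-MaP buffer (100 mM Tris pH 7.5, 80 mM KCl, 4 mM MgCl2), without ligand or with the indicated ligand. Median apparent KD per design.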

[1] = input ligand: theophylline 20 uM
[2] = input ligand: tryptophan 2.4 mM
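Also: bound reporter read as fluorescence of individual clusters on recovered sequencing chips by microscopy, with normalized cluster intensities fitted with a binding model.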

Sequence | apparent KD of K4 kissing-loop reporter (input ligand: FMN 200 uM) | apparent KD of K4 kissing-loop reporter (input ligand: arginine 13.2 mM) | apparent KD of K4 kissing-loop reporter (input ligand: none) | apparent KD of K4 kissing-loop reporter [1] | apparent KD of K4 kissing-loop reporter [2]
UACUAUAGUGAUGUUAUAGAUAAACCAGAUACCAGUGUGACAUAACACCCUUGGCAGCUGAUAAGGGAACAUAUGAAAACAUAUG [AstroSSTHeAED5.17] | 146 nM | 120 nM | 132 nM | 120 nM | 128 nM
UACUUUAAUUUAUAACUAUCUUUAUUUUGUCAGGAUAUCGUAUAGUCGAGAAGGGACUCUAUCAAGUGAUGUUUGAUAUAUCGUU [JR_SSFMNA_Sub025] | 140 nM | 155 nM | 131 nM | 147 nM | 112 nM
UAGCGUAUCAGAGGAUAUGAUAUGUUAUGCAGUGAUGUUGCAUGAUGUAGCAGAAUUCUGAGUGUAUCAGAAGGCUGAUAUGCUA [FMN B Ex t3] | 171 nM | 87.8 nM | 90.5 nM | 78.9 nM | 88.6 nM
UAGGAGUGAUGUUCCUAUAGCAGGUAGGAAGGAGCGCCCAUUUGGGCAGGUAGGUCGCCUACCGGCCCUAAGUUAAACCUUAGGC [Rariar] | 99.6 nM | 111 nM | 92.6 nM | 109 nM | 89 nM
UAGGGCCCUGGAGGAUAUGAGUCUAGUGAUGUUAGGCGGUCCAUGCGCGUGGCGCGUUAUGCCCUUUUAGAAGGCCAGGGCCCUA [#2 Exclusion - FMN B Attempt #17 (HarryS)] | 119 nM | 72.8 nM | 99 nM | 99.3 nM | 92.4 nM
UAGGGUUGAAAAGGAUAUUUACCCUAUGUCAACGAGUGAUGUUCGUGGACAUUAGGCACAACUCGUAAAGAAGGUUUCCAGACUC [theeternabot_sameState_KL_FMN_B_39] | 93 nM | 87.5 nM | 95 nM | 97.5 nM | 95.7 nM
UAGUAUAAUCUGUCGUUUACAAUAUUUAGUCAGGAUAUCGUAUAUUCGAGAAGGGACACUAUCUAGUGAUGUUAGAUAUUUCUUU [JR_ExcFMNA_Sub013] | 46.8 nM | 78.2 nM | 54.9 nM | 71.4 nM | 52.8 nM
UAGUCAUACAGAGGAUAUCGUAUGAGUGAUGUUCAUACGACAUAAUCGAGUUGUAUCGAUGUUCGACGAGAAGGCUGUAUGACUA [FMN B Ex t1b] | 210 nM | 89.6 nM | 118 nM | 106 nM | 111 nM
UAUAGACAAGUGAUGUUUGUCAUAUCCGAAGGAGCGUCUUCUAAGACAGGUAGGUCGCGGAUUAAUUUUGUUAUGAUACUAUUUA [JR_SSArginiA_Sub016] | 122 nM | 120 nM | 126 nM | 133 nM | 104 nM
UAUAUACAUUUAUUAAUUAAAGGUUCAGAAGGAGCGUGAAUUAACACAGGUAGGUCGCUGAGCGAGUGAUGUUCGCUAUAUGGAA [JR_ExcArginiA_Sub006] | 54.1 nM | 69.3 nM | 57 nM | 81 nM | 50.4 nM
UAUAUAGUGACGGCCGCCACUAUAUUAAUGUUUUUGUUAGAGUGAUGUUUUGAUUAAUAUUUUUAUAGGACCGGGUUAUAUGUUA [xzzxmullin] | 657 nM | 403 nM | 634 nM | 628 nM | 558 nM
UAUAUAGUGACGGCCGCCACUAUAUUAAUGUUUUUGUUAGAGUGAUGUUUUGUUUAAUAUUUUUAUAGGACCGGGUUAUAUGUUA [zsqqxmullin] | 569 nM | 338 nM | 641 nM | 557 nM | 580 nM
UAUCUUUACUGAAGGAGCGAGCAUUUUGGAGUGAUGUUCCGAGCGAGUGAUGUUCGCAUAGCUCAGGUAGGUCGCAGUGGGAAAA [Same State Arginie B GF 15] | 152 nM | 149 nM | 143 nM | 162 nM | 138 nM
UAUUCUUAUCUUAGUUGAUUUCUAAUUAAACGAGGACCGGUACGGCCGCCACUCGGUUAUGAGUGAUGUUCAUGGAAUUACAUAA [JR_SSTryptoA_Sub020] | 275 nM | 481 nM | 413 nM | 548 nM | 143 nM
UCACGAGUGAUGUUCGUCGCAAUCACCGAAGGAGCGGGCGAAAGCCCAGGUAGGUCGCGGUAGAAUAAUGAUUUUAUUCGAUUGC [Same State Arginine A GF 26] | 786 nM | 602 nM | 756 nM | 613 nM | 568 nM
UCCUGCAAUCGCCCACGAAAGUGGAUCGAUACCAGAGUCGAAAGACUCCCUUGGCAGCGAGUGAUGUUCGAAGCAGGUAAAUAAA | 771 nM | 612 nM | 765 nM | 605 nM | 637 nM
UCCUGCAAUCUGCCACGAAAGUGGGUUGAUACCAGAGUCGAAAGACUCCCUUGGCAGCGAGUGAUGUUCGUUGCAGGUGAAUAAA [MatMod 9 - Jieux - Exclusion - Theophylline A] | 118 nM | 264 nM | 444 nM | 309 nM | 323 nM
UCGAAAUGCGACUCCUAGUUACACCGGGAAGGAGCGUGGAUAACCGCAGGUAGGUCGCCCGGAAGCCGGACCAGUGAUGUUGGUC [Exclusion Arginine A Gf 28] | 207 nM | 177 nM | 203 nM | 274 nM | 155 nM
UCGAAAUGCGUCUCCUAGUUACUCCGGGAAGGAGCGUGGAUAACCGCAGGUAGGUCGCCCGGAAGCCGGACCAGUGAUGUUGGUC [Exclusion Arginine A Gf 29] | 216 nM | 179 nM | 221 nM | 186 nM | 182 nM
UCGAACGAUGGAAGGAGCGCUCGUCAGUCCUGCGAGUGAUGUUCGUGGGUAAAUAGUCGCGAGCAGGUAGGUCGCCAUCUUGGGC [Reriat] | 153 nM | 132 nM | 151 nM | 136 nM | 134 nM
